In patent US20250186597A1, “TARGETED IMMUNE ACTIVATION WITH IL-18 IMMUNOCYTOKINES” (BRIGHT PEAK THERAPEUTICS AG, priority 2023, published 2025):

Experiments:
Assay in all cases: cell-based or functional assay
[1] = target: IL-18 polypeptide C143 (V11I, C38A, K53A, C76A, C127A) (human) (UniProt Q14116)
[2] = target: IL-18 polypeptide C146 (SEQ ID NO: 68; V11I, C38A, M51G, K53A, C76A, C127A) (human) (UniProt Q14116)
[3] = target: IL-18 polypeptide C148 (F2A, V11I, C38A, K53A, C76A, C127A) (human) (UniProt Q14116)
Sequence of IL-18 polypeptide C148 (F2A, V11I, C38A, K53A, C76A, C127A) (human) (Q14116 other isoform, or with tags, fused parts or gaps V11I C38A K53A C76A C127A V11I C38A K53A C76A C127A): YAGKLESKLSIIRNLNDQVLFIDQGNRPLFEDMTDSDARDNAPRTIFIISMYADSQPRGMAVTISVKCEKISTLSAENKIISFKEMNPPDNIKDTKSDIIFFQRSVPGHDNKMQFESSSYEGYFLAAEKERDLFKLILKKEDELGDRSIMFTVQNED

[4] = target: IL-18 polypeptide C149 (V11I, E31A, C38A, K53A, C76A, C127A) (human) (UniProt Q14116)
Sequence of IL-18 polypeptide C149 (V11I, E31A, C38A, K53A, C76A, C127A) (human) (Q14116 37-193 V47I/E67A/C74A/K89A/C112A/C163A): as the sequence (Q14116 other isoform, or with tags, fused parts or gaps V11I C38A K53A C76A C127A V11I C38A K53A C76A C127A) above, with A2F, E31A counted along it

[5] = target: IL-18 polypeptide C151 (V11I, D35A, C38A, K53A, C76A, C127A) (human) (UniProt Q14116)
Sequence of IL-18 polypeptide C151 (V11I, D35A, C38A, K53A, C76A, C127A) (human) (Q14116 37-193 V47I/D71A/C74A/K89A/C112A/C163A): as the sequence (Q14116 other isoform, or with tags, fused parts or gaps V11I C38A K53A C76A C127A V11I C38A K53A C76A C127A) above, with A2F, D35A counted along it

[6] = target: IL-18 polypeptide C152 (V11I, S36A, C38A, K53A, C76A, C127A) (human) (UniProt Q14116)
Sequence of IL-18 polypeptide C152 (V11I, S36A, C38A, K53A, C76A, C127A) (human) (Q14116 37-193 V47I/S72A/C74A/K89A/C112A/C163A): as the sequence (Q14116 other isoform, or with tags, fused parts or gaps V11I C38A K53A C76A C127A V11I C38A K53A C76A C127A) above, with A2F, S36A counted along it

[7] = target: IL-18 polypeptide C153 (V11I, D37A, C38A, K53A, C76A, C127A) (human) (UniProt Q14116)
Sequence of IL-18 polypeptide C153 (V11I, D37A, C38A, K53A, C76A, C127A) (human) (Q14116 37-193 V47I/D73A/C74A/K89A/C112A/C163A): as the sequence (Q14116 other isoform, or with tags, fused parts or gaps V11I C38A K53A C76A C127A V11I C38A K53A C76A C127A) above, with A2F, D37A counted along it

[8] = target: IL-18 polypeptide C157 (V11I, C38A, K53A, C76A, C127A, D132A) (human) (UniProt Q14116)
Sequence of IL-18 polypeptide C157 (V11I, C38A, K53A, C76A, C127A, D132A) (human) (Q14116 37-193 V47I/C74A/K89A/C112A/C163A/D168A): as the sequence (Q14116 other isoform, or with tags, fused parts or gaps V11I C38A K53A C76A C127A V11I C38A K53A C76A C127A) above, with A2F, D132A counted along it

[9] = target: IL-18 polypeptide C159 (V11I, C38A, K53A, C76A, H109A, C127A) (human) (UniProt Q14116)
Sequence of IL-18 polypeptide C159 (V11I, C38A, K53A, C76A, H109A, C127A) (human) (Q14116 37-193 V47I/C74A/K89A/C112A/H145A/C163A): as the sequence (Q14116 other isoform, or with tags, fused parts or gaps V11I C38A K53A C76A C127A V11I C38A K53A C76A C127A) above, with A2F, H109A counted along it

[10] = target: IL-18 polypeptide C161 (K8R, V11I, C38A, C76A, Q103E, C127A) (human) (UniProt Q14116)
Sequence of IL-18 polypeptide C161 (K8R, V11I, C38A, C76A, Q103E, C127A) (human) (Q14116 other isoform, or with tags, fused parts or gaps V11I C38A C76A Q103E C127A V11I C38A C76A Q103E C127A): as the sequence (Q14116 other isoform, or with tags, fused parts or gaps V11I C38A K53A C76A C127A V11I C38A K53A C76A C127A) above, with A2F, K8R, A53K, Q103E counted along it

[11] = target: IL-18 polypeptide C162 (K8E, V11I, C38A, C76A, Q103R, C127A) (human) (UniProt Q14116)
[12] = target: IL-18 polypeptide C163 (V11I, C38A, C76A, Q103K, C127A) (human) (UniProt Q14116)
Sequence of IL-18 polypeptide C163 (V11I, C38A, C76A, Q103K, C127A) (human) (Q14116 37-193 V47I/C74A/C112A/Q139K/C163A): as the sequence (Q14116 other isoform, or with tags, fused parts or gaps V11I C38A K53A C76A C127A V11I C38A K53A C76A C127A) above, with A2F, A53K, Q103K counted along it

[13] = target: IL-18 polypeptide C164 (V11I, C38A, S55H, C76A, C127A) (human) (UniProt Q14116)
Sequence of IL-18 polypeptide C164 (V11I, C38A, S55H, C76A, C127A) (human) (Q14116 37-193 V47I/C74A/S91H/C112A/C163A): as the sequence (Q14116 other isoform, or with tags, fused parts or gaps V11I C38A K53A C76A C127A V11I C38A K53A C76A C127A) above, with A2F, A53K, S55H counted along it

[14] = target: IL-18 polypeptide C165 (V11I, C38A, S55R, C76A, C127A) (human) (UniProt Q14116)
Sequence of IL-18 polypeptide C165 (V11I, C38A, S55R, C76A, C127A) (human) (Q14116 37-193 V47I/C74A/S91R/C112A/C163A): as the sequence (Q14116 other isoform, or with tags, fused parts or gaps V11I C38A K53A C76A C127A V11I C38A K53A C76A C127A) above, with A2F, A53K, S55R counted along it

[15] = target: IL-18 polypeptide C166 (V11I, C38A, S55T, C76A, C127A) (human) (UniProt Q14116)
Sequence of IL-18 polypeptide C166 (V11I, C38A, S55T, C76A, C127A) (human) (Q14116 37-193 V47I/C74A/S91T/C112A/C163A): as the sequence (Q14116 other isoform, or with tags, fused parts or gaps V11I C38A K53A C76A C127A V11I C38A K53A C76A C127A) above, with A2F, A53K, S55T counted along it

[16] = target: IL-18 polypeptide C167 (V11I, C38A, C76A, S105I, C127A) (human) (UniProt Q14116)
Sequence of IL-18 polypeptide C167 (V11I, C38A, C76A, S105I, C127A) (human) (Q14116 37-193 V47I/C74A/C112A/S141I/C163A): as the sequence (Q14116 other isoform, or with tags, fused parts or gaps V11I C38A K53A C76A C127A V11I C38A K53A C76A C127A) above, with A2F, A53K, S105I counted along it

[17] = target: IL-18 polypeptide C168 (V11I, C38A, C76A, S105K, C127A) (human) (UniProt Q14116)
Sequence of IL-18 polypeptide C168 (V11I, C38A, C76A, S105K, C127A) (human) (Q14116 37-193 V47I/C74A/C112A/S141K/C163A): as the sequence (Q14116 other isoform, or with tags, fused parts or gaps V11I C38A K53A C76A C127A V11I C38A K53A C76A C127A) above, with A2F, A53K, S105K counted along it

[18] = target: IL-18 polypeptide of SEQ ID NO: 37 (S55A) (human) (UniProt Q14116)
[19] = target: IL-18 polypeptide of SEQ ID NO: 39 (E06K, K53A) (human) (UniProt Q14116)
Sequence of IL-18 polypeptide of SEQ ID NO: 39 (E06K, K53A) (human) (Q14116 37-193 E42K/K89A): as the sequence (Q14116 other isoform, or with tags, fused parts or gaps V11I C38A K53A C76A C127A V11I C38A K53A C76A C127A) above, with A2F, E6K, I11V, A38C, A76C, A127C counted along it

[20] = target: IL-18 polypeptide of SEQ ID NO: 4 (E6K, C38A, K53A, C68A, M86C) (human) (UniProt Q14116)
[21] = target: IL-18 polypeptide of SEQ ID NO: 40 (E06K, S55A) (human) (UniProt Q14116)
Sequence of IL-18 polypeptide of SEQ ID NO: 40 (E06K, S55A) (human) (Q14116 37-193 E42K/S91A): as the sequence (Q14116 other isoform, or with tags, fused parts or gaps V11I C38A K53A C76A C127A V11I C38A K53A C76A C127A) above, with A2F, E6K, I11V, A38C, A53K, S55A, A76C, A127C counted along it

[22] = target: IL-18 polypeptide of SEQ ID NO: 42 (E06K, K53A, S55A, T63A) (human) (UniProt Q14116)
Sequence of IL-18 polypeptide of SEQ ID NO: 42 (E06K, K53A, S55A, T63A) (human) (Q14116 37-193 E42K/K89A/S91A/T99A): as the sequence (Q14116 other isoform, or with tags, fused parts or gaps V11I C38A K53A C76A C127A V11I C38A K53A C76A C127A) above, with A2F, E6K, I11V, A38C, S55A, T63A, A76C, A127C counted along it

[23] = target: IL-18 polypeptide of SEQ ID NO: 46 (E06K, K53A, S55A, M51G) (human) (UniProt Q14116)
Sequence of IL-18 polypeptide of SEQ ID NO: 46 (E06K, K53A, S55A, M51G) (human) (Q14116 37-193 E42K/M87G/K89A/S91A): as the sequence (Q14116 other isoform, or with tags, fused parts or gaps V11I C38A K53A C76A C127A V11I C38A K53A C76A C127A) above, with A2F, E6K, I11V, A38C, M51G, S55A, A76C, A127C counted along it

[24] = target: IL-18 polypeptide of SEQ ID NO: 47 (C38S, C68S, C76S, C127S) (human) (UniProt Q14116)
Sequence of IL-18 polypeptide of SEQ ID NO: 47 (C38S, C68S, C76S, C127S) (human) (Q14116 37-193 C74S/C104S/C112S/C163S): as the sequence (Q14116 other isoform, or with tags, fused parts or gaps V11I C38A K53A C76A C127A V11I C38A K53A C76A C127A) above, with A2F, I11V, A38S, A53K, C68S, A76S, A127S counted along it

[25] = target: IL-18 polypeptide of SEQ ID NO: 48 (C38S, C68S, C76S, C127S, K70C) (human) (UniProt Q14116)
Sequence of IL-18 polypeptide of SEQ ID NO: 48 (C38S, C68S, C76S, C127S, K70C) (human) (Q14116 37-193 C74S/C104S/K106C/C112S/C163S): as the sequence (Q14116 other isoform, or with tags, fused parts or gaps V11I C38A K53A C76A C127A V11I C38A K53A C76A C127A) above, with A2F, I11V, A38S, A53K, C68S, K70C, A76S, A127S counted along it

[26] = target: IL-18 polypeptide of SEQ ID NO: 5 (E6K, V11I, C38A, K53A, T63A, C68A, C76A, M86C, C127A) (human) (UniProt Q14116)
[27] = target: IL-18 polypeptide of SEQ ID NO: 50 (E06K, K53A, T63A) (human) (UniProt Q14116)
Sequence of IL-18 polypeptide of SEQ ID NO: 50 (E06K, K53A, T63A) (human) (Q14116 37-193 E42K/K89A/T99A): as the sequence (Q14116 other isoform, or with tags, fused parts or gaps V11I C38A K53A C76A C127A V11I C38A K53A C76A C127A) above, with A2F, E6K, I11V, A38C, T63A, A76C, A127C counted along it

[28] = target: IL-18 polypeptide of SEQ ID NO: 51 (T63A) (human) (UniProt Q14116)
Sequence of IL-18 polypeptide of SEQ ID NO: 51 (T63A) (human) (Q14116 37-193 T99A): as the sequence (Q14116 other isoform, or with tags, fused parts or gaps V11I C38A K53A C76A C127A V11I C38A K53A C76A C127A) above, with A2F, I11V, A38C, A53K, T63A, A76C, A127C counted along it

[29] = target: IL-18 polypeptide of SEQ ID NO: 53 (K53A, T63A) (human) (UniProt Q14116)
[30] = target: IL-18 polypeptide of SEQ ID NO: 59 (E6K, C38A, K53A) (human) (UniProt Q14116)
Sequence of IL-18 polypeptide of SEQ ID NO: 59 (E6K, C38A, K53A) (human) (Q14116 other isoform, or with tags, fused parts or gaps C38A K53A C38A K53A): as the sequence (Q14116 other isoform, or with tags, fused parts or gaps V11I C38A K53A C76A C127A V11I C38A K53A C76A C127A) above, with A2F, E6K, I11V, A76C, A127C counted along it

[31] = target: IL-18 polypeptide of SEQ ID NO: 60 (E6K, C38Q, K53A) (human) (UniProt Q14116)
Sequence of IL-18 polypeptide of SEQ ID NO: 60 (E6K, C38Q, K53A) (human) (Q14116 other isoform, or with tags, fused parts or gaps C38Q K53A C38Q K53A): as the sequence (Q14116 other isoform, or with tags, fused parts or gaps V11I C38A K53A C76A C127A V11I C38A K53A C76A C127A) above, with A2F, E6K, I11V, A38Q, A76C, A127C counted along it

[32] = target: IL-18 polypeptide of SEQ ID NO: 62 (E6K, C38A, K53A, C127A) (human) (UniProt Q14116)
Sequence of IL-18 polypeptide of SEQ ID NO: 62 (E6K, C38A, K53A, C127A) (human) (Q14116 other isoform, or with tags, fused parts or gaps C38A K53A C127A C38A K53A C127A): as the sequence (Q14116 other isoform, or with tags, fused parts or gaps V11I C38A K53A C76A C127A V11I C38A K53A C76A C127A) above, with A2F, E6K, I11V, A76C counted along it

[33] = target: IL-18 polypeptide of SEQ ID NO: 9 (E6K, C38A, K53A, C68A, D98C) (human) (UniProt Q14116)
Sequence of IL-18 polypeptide of SEQ ID NO: 9 (E6K, C38A, K53A, C68A, D98C) (human) (Q14116 other isoform, or with tags, fused parts or gaps C38A K53A C68A D98C C38A K53A C68A D98C): as the sequence (Q14116 other isoform, or with tags, fused parts or gaps V11I C38A K53A C76A C127A V11I C38A K53A C76A C127A) above, with A2F, E6K, I11V, C68A, A76C, D98C, A127C counted along it

Sequence of IL-18 polypeptide C146 (SEQ ID NO: 68; V11I, C38A, M51G, K53A, C76A, C127A) (human) (Q14116 37-193 V47I/C74A/M87G/K89A/C112A/C163A): as the sequence (Q14116 other isoform, or with tags, fused parts or gaps V11I C38A K53A C76A C127A V11I C38A K53A C76A C127A) above, with A2F, M51G counted along it
Sequence of IL-18 polypeptide C143 (V11I, C38A, K53A, C76A, C127A) (human) (Q14116 37-193 V47I/C74A/K89A/C112A/C163A): as the sequence (Q14116 other isoform, or with tags, fused parts or gaps V11I C38A K53A C76A C127A V11I C38A K53A C76A C127A) above, with A2F counted along it

Substance: Fc fused human IL-18 binding protein isoform a (IL-18BPa; R&D systems, Cat #119-BP) (from UniProt O95998 31-194) (Fc fusion)
- IC50 of inhibition by IL-18BP of IFNγ stimulation in NK92 cells [1]: 1.62 nM
- IC50 of inhibition by IL-18BP of IFNγ stimulation in NK92 cells [2]: 733 nM
- IC50 of inhibition by IL-18BP of IFNγ stimulation in NK92 cells [3]: 5.05 nM
- IC50 of inhibition by IL-18BP of IFNγ stimulation in NK92 cells [4]: 1.17 nM
- IC50 of inhibition by IL-18BP of IFNγ stimulation in NK92 cells [5]: 3.62 nM
- IC50 of inhibition by IL-18BP of IFNγ stimulation in NK92 cells [6]: 7.85 nM
- IC50 of inhibition by IL-18BP of IFNγ stimulation in NK92 cells [7]: 2.22 nM
- IC50 of inhibition by IL-18BP of IFNγ stimulation in NK92 cells [8]: 6.08 nM
- IC50 of inhibition by IL-18BP of IFNγ stimulation in NK92 cells [9]: 1.81 nM
- IC50 of inhibition by IL-18BP of IFNγ stimulation in NK92 cells [10]: 1.07 nM
- IC50 of inhibition by IL-18BP of IFNγ stimulation in NK92 cells [11]: 7.29 nM
- IC50 of inhibition by IL-18BP of IFNγ stimulation in NK92 cells [12]: 0.823 nM
- IC50 of inhibition by IL-18BP of IFNγ stimulation in NK92 cells [13]: 0.456 nM
- IC50 of inhibition by IL-18BP of IFNγ stimulation in NK92 cells [14]: 0.885 nM
- IC50 of inhibition by IL-18BP of IFNγ stimulation in NK92 cells [15]: 0.44 nM
- IC50 of inhibition by IL-18BP of IFNγ stimulation in NK92 cells [16]: 0.809 nM
- IC50 of inhibition by IL-18BP of IFNγ stimulation in NK92 cells [17]: 0.176 nM
- IC50 of inhibition by IL-18BP of IFNγ stimulation in NK92 cells [18]: 4.46 nM
- IC50 of inhibition by IL-18BP of IFNγ stimulation in NK92 cells [19]: > 703 nM
- IC50 of inhibition by IL-18BP of IFNγ stimulation in NK92 cells [20]: 396 nM
- IC50 of inhibition by IL-18BP of IFNγ stimulation in NK92 cells [21]: 15 nM
- IC50 of inhibition by IL-18BP of IFNγ stimulation in NK92 cells [22]: 1060 nM
- IC50 of inhibition by IL-18BP of IFNγ stimulation in NK92 cells [23]: 0.189 nM
- IC50 of inhibition by IL-18BP of IFNγ stimulation in NK92 cells [24]: 0.444 nM
- IC50 of inhibition by IL-18BP of IFNγ stimulation in NK92 cells [25]: 0.114 nM
- IC50 of inhibition by IL-18BP of IFNγ stimulation in NK92 cells [26]: 62.4 nM
- IC50 of inhibition by IL-18BP of IFNγ stimulation in NK92 cells [27]: > 1000 nM
- IC50 of inhibition by IL-18BP of IFNγ stimulation in NK92 cells [28]: 0.239 nM
- IC50 of inhibition by IL-18BP of IFNγ stimulation in NK92 cells [29]: 18.2 nM
- IC50 of inhibition by IL-18BP of IFNγ stimulation in NK92 cells [30]: 654 nM
- IC50 of inhibition by IL-18BP of IFNγ stimulation in NK92 cells [31]: 780 nM
- IC50 of inhibition by IL-18BP of IFNγ stimulation in NK92 cells [32]: 284 nM
- IC50 of inhibition by IL-18BP of IFNγ stimulation in NK92 cells [33]: 961 nM
